Results as given in US20190336589A1 (published 2019).
Values belong to the binder of their own block, whether it stands above or below them.

What was measured:
[1] = molecular target: T1, PLP (myelin proteolipid protein) peptide on I-A^s (mouse, 3rd amino acid from the N terminus substituted from cysteine to serine; contains the serine-substituted epitope of SEQ ID NO: 20); assay: activation reporter or marker
T1 peptide: RVSHSLGKWLGHPDKF
Description: The cultured cells were collected, and the 2E5 reporter T cells were stained with an APC-labeled anti-CD45 antibody (clone name: 30-F11, eBioscience). Then, the stained 2E5 reporter cells were analyzed by flow cytometry so as to determine the proportion of the GFP-positive cells in the CD45-positive cells. As Control 1, the proportion of the GFP-positive cells in the CD45-positive cells was analyzed in the same manner, except that the above-described medium was added instead of the IgG antibody.

[2] = molecular target: T2, Hen egg lysozyme (HEL) peptide on I-A^k (mouse); assay: binding, other
T2 peptide: DGSTDYGILQINSR

[3] = molecular target: Hen egg lysozyme (HEL) peptide on I-A^k (mouse); assay: binding, other; remark: listed apart in the source
Target sequence in this assay (peptide, as listed by the source): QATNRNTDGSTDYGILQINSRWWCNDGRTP

binding result [1]: recognises
B1: 2E5 TCR (TCR, V domains shown)
Valpha: GEKVEQHQSTLSVREGDSAVINCTYTDTASSYFPWYKQEAGKSLHFVIDIRSNVDRKQSQRLTVLLDKKAKRFSLHITATQPEDSAIYFCAASPGANTGKLTFGHGTILRVHP
Vbeta: VAGVTQTPRYLVKEEGQKAHMSCSPEKGHTAFYWYQQNQKQELTFLINFRNEEIMEQTDLVKKRFSAKCSSNSQCILEILSSEEDDSALYLCASSLVRGNSDYTFGSGTRLLVI

binding result [2]: recognises
binding result [3]: recognises
B2: 3A9 TCR (TCR, V domains shown)
Valpha: AQSVTQPDARVTVSEGASLQLRCKYSYSGTPYLFWYVQYPRQGLQLLLKYYSGDPVVQGVNGFEAEFSKSNSSFHLRKASVHWSDSAVYFCALNSGGSNAKLAFGKGSKLSVKS
Vbeta: AVTQSPRNKVAVTGGKVTLSCNQTNNHNNMYWYRQDTGHGLRLIHYSYGAGSTEKGDIPDGYKASRPSQENFSLILELATPSQTSVYFCASGDESALPELYFGEGSKLTVL
